Assay results published in patent publication EP1298214A2, “Plant thioesterases” (Calgene LLC, priority 1990, dated 1991).

What was measured:
[1] = target: T1, bay thioesterase enzyme purified from developing seeds (Umbellularia californica, UniProt Q41635); test: Substrate analysis of bay thioesterase purified from developing seeds; assay type: biochemical; settings: enzyme purified from developing seeds as in Example 2
T1 construct: The cotyledons from such seeds are dissected from the other seed parts and stored frozen at -70°; This comprises the source tissue for enzyme extraction; from tissue; host or cells: immature seed cotyledons of Umbellularia californica
T1 sequence (Q41635 84-382): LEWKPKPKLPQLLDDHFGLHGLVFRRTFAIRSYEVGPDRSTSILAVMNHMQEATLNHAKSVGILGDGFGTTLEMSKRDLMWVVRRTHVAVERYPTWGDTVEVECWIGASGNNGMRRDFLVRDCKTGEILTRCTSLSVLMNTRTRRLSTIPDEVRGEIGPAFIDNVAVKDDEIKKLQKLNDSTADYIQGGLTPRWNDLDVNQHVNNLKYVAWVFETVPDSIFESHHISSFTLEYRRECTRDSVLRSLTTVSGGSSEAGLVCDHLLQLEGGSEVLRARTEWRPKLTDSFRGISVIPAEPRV
Procedure: (§1) To assay for C12 thioesterase activity the following mixture is incubated at 30° for 30 min: "buffer" comprising 7mM KH2PO4-KOH pH 8, 20% v/v glycerol, 1mM dithiothreitol (DTT), 0.1% v/v Triton X100; sample to be tested for activity in the same or similar buffer as the "extraction buffer" described in Example 2; and 5µl of ^14C-radiolabeled lauroyl-ACP substrate for a total volume of 100µl and final lauroyl-ACP concentration of 0.5µM. Lauroyl-ACP substrate is prepared according to the method of Rock et al (Methods in Enzymology (1981) 72:397-403), using ACP prepared from Escherichia coli by the method of Rock and Cronan (Methods in Enzymology (1981) 71:341-351). The laurate is radiolabeled in the carboxylate group at a specific radioactivity of 50-60µCi/µmol.
(§2) The reaction is stopped by adding 0.5ml cold (0°) 10% v/v acetic acid. The fatty acid product of the hydrolytic enzyme action is extracted away from the unhydrolyzed substrate by adding 1ml diethyl ether and mixing vigorously. After settling for a few minutes the upper ether layer is transferred to 5ml scintillation fluid for determination of radioactivity by liquid scintillation spectrometry. Additional ether extractions may be performed to recover remaining traces of the reaction product for more accurate quantitation of the enzyme activity if desired. The amount of ether-extracted radioactivity is a direct measure of C12-preferring acyl-ACP thioesterase activity, provided the amount of enzyme is not sufficient to hydrolyze more than about 25% of the substrate. With greater activity than this the relationship between radioactivity in the ether layer and the quantity of enzyme becomes markedly nonlinear. The enzyme preparation must then be diluted appropriately to bring the activity into the linear range of the assay.
The dialyzed material is then applied to a column of immobilized ACP (2.5cm diameter x 10.5cm bed height). This column is manufactured by coupling Escherichia coli ACP to cyanogen bromide-activated Sepharose 4B according to instructions supplied by the manufacturer of this column packing (Pharmacia Inc., Piscataway, NJ). The E. coli ACP is prepared as referenced in Example 1. Before use the column is equilibrated with ACP1 buffer. The dialyzed material from the cation exchange column is applied at 1-1.3ml/min, and fractions of 8ml volume are collected throughout the procedure. Fractions are assayed for C12-preferring acyl-ACP thioesterase activity, and for total protein content using a Cobmassie Blue assay method (Bio-Rad Inc., Richmond, CA, catalog no. 500-0001). A substantial amount of protein washes through the column without binding. Almost all of the C12-preferring acyl-ACP thioesterase activity binds. […]

[2] = target: T2, Bay C12-preferring acyl-ACP thioesterase (Umbellularia californica, UniProt Q41635); test: Bay thioesterase substrate specificity as a function of chain length, ammonium sulfate fraction; assay type: biochemical; design: The cotyledons from such seeds are dissected from the other seed parts and stored frozen at -70°; This comprises the source tissue for enzyme extraction; from tissue; host or cells: immature seed cotyledons of Umbellularia californica; settings: C8-ACP activity set to 1.0; label is acyl chain length of the acyl-ACP
T2 sequence (Q41635 84-382): T1 sequence (Q41635 84-382)
Procedure: as §1, with “and 5µl of ^14C-radiolabeled lauroyl-ACP substrate for a total volume of 100µl” left out
as §2
The crude extract is subjected to ammonium sulfate fractionation as follows. Sufficient solid ammonium sulfate is gradually added with stirring over 30 min to achieve 70% saturation. The preparation is then stirred for a further 30 min. After centrifuging as described above, the pelleted material is resuspended in extraction buffer (2ml/g original tissue weight) and stirred for 10 min until dissolved. Ammonium sulfate is then added as before, but this time only sufficient to achieve 50% saturation. After centrifuging as before, the supernatant fraction is discarded. The pelleted material, which contains the C12-preferring acyl-ACP thioesterase, may be frozen by immersion in liquid nitrogen and then stored at -70° at this stage if desired. The resulting material is referred to as the "ammonium sulfate fraction." Very little of the C12-preferring acyl-ACP thioesterase activity is lost if the pellet is frozen very rapidly. […]

Substance	Hydrolysis Activity (mean cpm in ether extract) [1]	Relative Thioesterase Activity [2]
14:0-ACP	69 cpm	4.0
16:0-ACP	12 cpm	4.7
decanoyl-ACP [10:0-ACP]	0 cpm	2.7
lauroyl-ACP [12:0-ACP]	1261 cpm	24.0
